Test results reported in PMC7113306.
Like-named read-outs stand apart in the source and are kept apart here.

Columns and labels:
[1] = target: ALK1-Fc ECD (Homo sapiens) (UniProt P37023); conditions: cited from earlier work
[2] = target: ALK1-Fc (ALK1 extracellular domain-Fc fusion protein) (UniProt P37023); experiment: SPR; Biacore T100; ALK1-Fc (800 RU) or ALK1 monomer (270 RU) amine-coupled to a CM5 chip; ligands injected at 30 μl min^-1 in 0.01 M HEPES pH 7.4, 0.5 M NaCl, 3 mM EDTA, 0.5 mg ml^-1 BSA, 0.01% P20, 25 °C; 1:1 model with mass transport limitations; KD = kd/ka
Sequence of ALK1-Fc (ALK1 extracellular domain-Fc fusion protein) (P37023 22-118): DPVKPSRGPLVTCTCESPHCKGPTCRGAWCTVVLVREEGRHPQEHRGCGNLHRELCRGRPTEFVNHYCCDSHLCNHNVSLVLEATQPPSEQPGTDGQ

[3] = target: ALK1-Fc ECD (Homo sapiens) (UniProt P37023); conditions: cited from earlier work; remark: listed apart in the source

Sequence of ALK1-Fc ECD (Homo sapiens) (P37023 22-118): as above
Sequence of BMP10 (O95393 317-424): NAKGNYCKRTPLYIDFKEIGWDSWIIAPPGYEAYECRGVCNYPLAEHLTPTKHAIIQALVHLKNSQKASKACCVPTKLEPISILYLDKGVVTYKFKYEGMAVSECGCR
Sequence of BMP9 (Q9UK05 320-429): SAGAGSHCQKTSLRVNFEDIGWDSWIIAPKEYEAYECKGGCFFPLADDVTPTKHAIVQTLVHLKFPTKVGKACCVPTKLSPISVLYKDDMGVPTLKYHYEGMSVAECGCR

Kd [2] | Substance | other results
– | BMP9 (from UniProt Q9UK05) | Kd [1]: 0.0452 nM
0.0481 nM | BMP9 GF-domain (bone morphogenetic protein 9 growth factor domain) (from UniProt Q9UK05 320-429) (ligand) | –
– | BMP10 (from UniProt O95393) | Kd [3]: 0.0103 nM
0.0343 nM | BMP10 GF-domain (bone morphogenetic protein 10 growth factor domain) (from UniProt O95393 317-424) (ligand) | –
